Assay: yeast display, Sf9 membrane polyspecificity reagent, FACS + sequencing; frameworks hold sequencing errors
Summary of the method: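 Using colony PCR, genes from sorted yeast display clones were amplified, then sequenced on MiSeq at 2 × 250 and filtered by CDR length. The clones had been stained with 10% biotinylated, detergent-solubilized Sf9 membrane reagent for 1 hour at 4 °C and sorted by FACS into low and high (top ~1%) gates on anti-HA and streptavidin fluorescence. Polyreactivity labels come from the gate of origin.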

Row | Sequence | polyreactivity (PSR sort gate)
1 | QVQLVESGGGLVQAGGSLRLSCAASVRIFVDNTMGLYRQAPGKERELVAVITSGGSTNYADSVKGRFTISRDNAKNTVYLQMNSLKPEDTAVYYCATEPGGDRFDDRPFQYGYWGQGTQVTVSS | low polyreactivity
2 | QVQLVESGGGLVQAGGSLRLSCAASVRTFEGYAMGWDRQEPGKERELVAAISKSGGRTYYADSVKGRFTISRDNAKNTVYLQMNSLKPEHTAVYYCAARVSSGSNSDYWGQGTQVTVSS | high polyreactivity
3 | QVQLVESGGGLVQAGGSLRLSCAASVRTFGFNVMGWYRQAPGKERELVAAISWSGGSTYYADSVKGRFTISRDNAKNTVYLQMNSLKPEVTAVYYCNKRYVHRYGYWGQGTQVTVSS | low polyreactivity
4 | QVQLVESGGGLVQAGGSLRLSCAASVRTFKFYAMGWYRQAPGKERELVAAITSSGGSTYYADSVKGRFTISRVNAKNTVYLQMNSLKPEDTAVYYCAAVGYKGYGYDYWGQGTQVTVSS | high polyreactivity
5 | QVQLVESGGGLVQAGGSLRLSCAASVRTMGPYTMGWYRPAPGKERELVAVISSRTGLTYYADSVKGRFTISRDNAKITFYLHMNSLKPEDTAVYYCNAGGRYHAPSGDYWGQGTQVTVSS | low polyreactivity
6 | QVQLVESGGGLVQAGGSLRLSCAASVSIFDSYAMAWYRQAPGKERELVAAISKRGGSTYYADSVKGRFTISRDTAKNTVYLQMNCLKPEDTAVYFCAAVYSQARSKAVYSEYYYWGLGTQVTVSS | high polyreactivity
7 | QVQLVESGGGLVQAGGSLRLSCAASVSIFRWNTMGWYRQAPGKERELVASITFTGGRTYYADSVKGRFTISRDNAKNTVYLQMNSLKPEDTAVYYCNGLVVTYPKWKYDYWGQGTQVTVSS | high polyreactivity
8 | QVQLVESGGGLVQAGGSLRLSCAASVSIFSSYAMGWYRQAPGKERELVAAISRSGGRTYYADSVKGRFTISRDNAKNTVFLQMNSLKPEDTAVYYCNAYAQVSYGTYDYWGQGTQVTVSS | high polyreactivity
9 | QVQLVESGGGLVQAGGSLRLSCAASVSIFWLYAMGWYRQAPGKERELVAAITYSGGRTYADSVKGRFTISRDNAKNTVYVQMISLKPEDTEVIYCATVFRYRKSWGYDYWGQGTQVTVSS | low polyreactivity
10 | QVQLVESGGGLVQAGGSLRLSCAASVSIFYFYAMGWYIQAPGKERELVAAITDGGSTHYADSVKGRFTISRDNAKNTVYLQMNSLKPEDTAVYYCAAQWHYYLGSGYQYDYWGQGTQVTVSS | low polyreactivity
11 | QVQLVESGGGLVQAGGSLRLSCAASVSIYPDYAMGWYRQAPGKERELVAAISRSGGSTYYADSVKGRFTISRDNAKNTVYLQMNSLKREDTAVYDCNARPGSRYYGYRLYYYWGQGTQVTVSS | high polyreactivity
12 | QVQLVESGGGLVQAGGSLRLSCAASVSTFPFYSMGWYRQAPGKERELVAAITSGGSTYADSVKGRFTISRDNAKNTVYLQMNSLKPEDTAVYYCAASWPRWWRFGYWGQGTQVTVSS | low polyreactivity
13 | QVQLVESGGGLVQAGGSLRLSCAASVSTYIYYAMGWYRQAPGKERELVAAISQSGGSTYYADSVKGRFTISRDNAKNTVYLQMNSLKPEDTAVYYCAARLRHLGLGRYGFDYWGQGTQVTVSS | high polyreactivity
14 | QVQLVESGGGLVQAGGSLRLSCAASVYIFWINAMGWYRQAPGKDRELVAAIRYSTGRTYYADSVKGRFTISRDNAKNTVYLQMNSLKPEDTAVYYCNARSWYIRGSQEYYYWGQGTQVTVSS | high polyreactivity
15 | QVQLVESGGGLVQAGGSLRLSCAATGFIFFYYAMGWYRQAPGKERELFAVIDRSGGTTYYADSVKGRFTISRDNAKNTVYLQMNSLKPEDTAVYYCNADDFTYPSGWGFIYDYWGQGTQVTVSS | low polyreactivity
16 | QVQLVESGGGLVQAGGSLRLSCAATGFTFGFNDMGWYRQAPGKERELVAAISWSGGRTYYADSVKGRFTISRDNAKNTVYLQMNSLKPEDTAVYDCAAEGVGRADRNKEYDYWGQGTQVTVSS | high polyreactivity
17 | QVQLVESGGGLVQAGGSLRLSCAATGFTFNRYTMGWYRQAPGKERELVASISVRGSRTYSADSVKGRFTISRDNAKNTVYLQMNSLKPEDTAVYYCNAKTYVYYRLRSYYYWGQGTQVTVSS | high polyreactivity
18 | QVQLVESGGGLVQAGGSLRLSCAATGGIFNVYVMGWYRHAPGKESEFVAAITWRGGSTYYADSVKGRFTISRDNAKNTVYLQMNSLKPEDTAVYYCNADAPFQSSSDGYQVEYWGQGTQVTVSS | low polyreactivity
19 | QVQLVESGGGLVQAGGSLRLSCAATGGTFEFYTMGWYRQAPGKERELVAVINASGDSTYYADSVKGRFTISRDNAKNTVYLQMNSLKPEDTAVYYCAADNQGYTTKWRREYYYWGQGTQVTVSS | low polyreactivity
20 | QVQLVESGGGLVQAGGSLRLSCAATGIIFGDNAMGWYRQAPGKERELVAAFTIGGTSTYNADSVKGRFTISRDNAKNTVYLQMNSQKPEDTAVYYCAKTILYDCDYWGQGTQVTVSS | low polyreactivity
21 | QVQLVESGGGLVQAGGSLRLSCAATGLNFAYNAMGWYRQAPGKERELVAAITGGGDGTYYADSVKGRFTISRDNAKNTVYLQMNSLKPEDTAVYYCADDYKYVGSEYGYWGQGTQVTVSS | low polyreactivity

Row | Sequence | polyreactivity (PSR sort gate)
22 | QVQLVESGGGLVQAGGSLRLSCAATGLTFPQYAMGWYRQAPGKEREIVAAIRSSDDRTYYADSVKGRFTISRDNAKNTVYLQLNSLKPEDTAVYYCAARVGKIGYKPRMDYWGQGTQVSVSS | high polyreactivity
23 | QVQLVESGGGLVQAGGSLRLSCAATGNIFADYAKGWYRQAPGKERELVAAITWSGDDTYYADSVKGRFTISRDNAKNTVYLQMNSLKPEDTAVYYCAAGYWRTSVDFDYWGQCTQVTVSS | low polyreactivity
24 | QVQLVESGGGLVQAGGSLRLSCAATGNIFRYNAMGWYRQAPGKERELFAAISSVGTTNYADSVKGRFTISRDNEKNTVYLQMNSLKPEDTAVYYVAAVAYQGGYLNDNWGQGTQVTLSS | low polyreactivity
25 | QVQLVESGGGLVQAGGSLRLSCAATGRIFGSNAMGWYRQAPGKEREVVAAITRGGSTNYADSVKGRFTISRDNAKNTVYLQMNSLKPEDTAVYYCAVRWYRKYNFWGQGTQVTVSS | high polyreactivity
26 | QVQLVESGGGLVQAGGSLRLSCAATGRIFQRNAMGWSRQEPGKEREFVAAISSRGGTTYYADSVKGRFTISRDNAKNTVYLQMNSLKQEDTAVYYCAAGYVHLYYFHEYYWGQGTQVTVSS | high polyreactivity
27 | QVQLVESGGGLVQAGGSLRLSCAATGRIFYGYAMGWYRQAPVKERELVAAITRGVSTYYADSVKGRFTISRDNAKNTVYLQMNSLKPEDTAVYYCAIERRVRMDSWGQGTQVTVSS | low polyreactivity
28 | QVQLVESGGGLVQAGGSLRLSCAATGRIYVTNAMGWYRQAPGKERELVAAITESGGSTYYADTVKGRFTISRDNAKNTVYLQMNSLKPEDTAVYYCAADYLNGEEDYWGQGTQVTVSS | low polyreactivity
29 | QVQLVESGGGLVQAGGSLRLSCAATGRNFVYNAMGWYRQAPGKERELVAAITWGGGSTYYADSVKGRFTISRDYAKNTVYLQMNSLKPEDTAVYYCAARGGSYPQDHSPYYEYDYWGQGTQVTVSS | low polyreactivity
30 | QVQLVESGGGLVQAGGSLRLSCAATGRTFRYYAMGWYRQAPGKERELVAAISSGGSTNYADSVKGRFTISRDNAKNTVYLQMNSLKPEDTAVYYCAALWSGNKFNYWGQGTQVTVSS | low polyreactivity
31 | QVQLVESGGGLVQAGGSLRLSCAATGRTFSEYVMGWYRQAPGKERELVAAISDRGTRTYYSDSVKGRFTISRDNAKNNVYLPMNSLKPEDTAVYYCYAGLTYNHDPYDYWGQGTQVTVSS | high polyreactivity
32 | QVQLVESGGGLVQAGGSLRLSCAATGRTFSIYAMGWYRQAPGKERELVARIRGGGSTNYADSVKGRFTISRDNAKNTVYLQMNSLKPEDTAVYYCATVYWRYGAHSYRYYYWGQGTQVTVSS | high polyreactivity
33 | QVQLVESGGGLVQAGGSLRLSCAATGRTFTYYALGGYRQAPGKQRELVAAISTSGGSTYYADSVKGRFTISRDNAKNTVYLQMNSLKPEDTAVYYCAASPYLRFLYGGFGYWGLGTQVTVSS | high polyreactivity
34 | QVQLVESGGGLVQAGGSLRLSCAATGRTFYQYAKGWSRQAPGKERELVAAISRRGGSTYYADSVKGRFTISRDNAKNTVYLQMNSLKPEDTAVYYCAAQRQYGKFDYWGQGTQVTVSS | high polyreactivity
35 | QVQLVESGGGLVQAGGSLRLSCAATGSIFDYYAMGWYRQAPGKERELVAAISLSGGITYYADSVKGRFTISRDNAKNTVYLQMNSLKPEDTEVYYCAADAIDVLYEYDRYDRRYEYWGQGTQVTVSS | low polyreactivity
36 | QVQLVESGGGLVQAGGSLRLSCAATGSIFGDNAMGWYRQAPGKARELVAAITSSGGSTYYADSVKGRFTISRDNAKNTVYLQMNSLKPEDTAVYYCNADFGYGWYLRYDYWGQGSQVTVSS | high polyreactivity
37 | QVQLVESGGGLVQAGGSLRLSCAATGSIFPPYGMGWYRRAPGKERELVAVITRSGGSTYYADSVKGRFTISRDNAKNTVYLQMNSLKPEDTAVYYCNVDSTTTFVYVVVSVVYEYDYWGQGTQVTVSS | low polyreactivity
38 | QVQLVESGGGLVQAGGSLRLSCAATGSIFSFYAMGWYRQAPGKERELVAGIRWRGGTSTFYADSVKGRFTISRDKAKNTVYLHMNSLKPEDTAVYYCAAKRRTGGNGYWGQGTQVTVSS | high polyreactivity
39 | QVQLVESGGGLVQAGGSLRLSCAATGSIFSSNAMGWYRQAPGKERELVAAIDYSGGRTYYADSVKGRFTISRDYEKNTVYLQMNSLKPEDTAVYYCAKLIPVHSRYDFWGQGTQVTVSS | low polyreactivity
40 | QVQLVESGGGLVQAGGSLRLSCAATGSIFVLYAMGWYRQAPGKERALVAAISKSTGSTYYADSVKGRFTISRDNAKNTVYLQMNSLKPEDTAVYYCAARGRQYRYYDLDYWGQGTQVTVSS | low polyreactivity
41 | QVQLVESGGGLVQAGGSLRLSCAATGSIFYFYTMGWYRQAPGKERELVAAIDWSSGSTYYADSVKGRFTISRDNAKNTVYLQMNSLKPEDTAVYYCNARDYWTGRHDYWGQGTQVTVSS | low polyreactivity
